Test [1] addresses T1, human CD96v2 expressed on cells (CHO cells; transiently transfected HEK cells) (human, UniProt P40200-2 22-569).
T1 construct: whole, on cells; the cell is named under assay; also called CHO-huCD96; hCD96v2
T1 sequence (looked up): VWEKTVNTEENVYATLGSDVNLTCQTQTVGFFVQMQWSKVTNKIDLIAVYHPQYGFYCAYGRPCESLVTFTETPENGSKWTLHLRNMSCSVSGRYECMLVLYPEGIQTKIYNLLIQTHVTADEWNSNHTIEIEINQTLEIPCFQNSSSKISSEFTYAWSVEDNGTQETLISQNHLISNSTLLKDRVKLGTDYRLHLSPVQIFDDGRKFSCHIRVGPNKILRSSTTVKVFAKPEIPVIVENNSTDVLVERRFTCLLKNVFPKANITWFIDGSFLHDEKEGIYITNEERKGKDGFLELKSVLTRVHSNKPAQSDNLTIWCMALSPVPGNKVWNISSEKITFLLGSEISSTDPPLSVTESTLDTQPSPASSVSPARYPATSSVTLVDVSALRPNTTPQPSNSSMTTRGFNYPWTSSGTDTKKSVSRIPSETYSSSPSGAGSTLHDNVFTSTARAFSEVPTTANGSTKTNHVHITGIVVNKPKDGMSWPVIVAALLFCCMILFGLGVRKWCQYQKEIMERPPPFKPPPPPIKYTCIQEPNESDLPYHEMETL
Put plainly: flow cytometry on CHO cells expressing human CD96v2.

Test [2] concerns the target T2, cynomolgus monkey CD96v2 expressed on cells (CHO cells; transiently transfected HEK cells) (cynomolgus monkey, UniProt A0A2K5TWV6 22-569).
T2 construct: the cell is named under assay; also called CHO-cyCD96; Cyno CD96v2
T2 sequence: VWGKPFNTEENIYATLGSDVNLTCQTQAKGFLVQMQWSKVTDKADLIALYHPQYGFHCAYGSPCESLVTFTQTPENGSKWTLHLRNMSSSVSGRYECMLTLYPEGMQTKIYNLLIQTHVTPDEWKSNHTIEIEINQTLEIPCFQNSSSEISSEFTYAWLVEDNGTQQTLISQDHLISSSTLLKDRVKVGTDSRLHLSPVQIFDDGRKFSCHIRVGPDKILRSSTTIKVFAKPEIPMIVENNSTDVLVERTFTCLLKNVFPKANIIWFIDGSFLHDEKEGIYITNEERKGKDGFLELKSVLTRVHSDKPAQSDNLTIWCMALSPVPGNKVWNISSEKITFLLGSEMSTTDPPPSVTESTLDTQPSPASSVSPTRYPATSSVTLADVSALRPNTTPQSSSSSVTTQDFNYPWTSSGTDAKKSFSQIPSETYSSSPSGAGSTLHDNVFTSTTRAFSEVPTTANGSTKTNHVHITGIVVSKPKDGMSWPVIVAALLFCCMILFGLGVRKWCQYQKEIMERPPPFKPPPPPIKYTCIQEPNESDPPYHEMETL
Put plainly: flow cytometry on CHO cells expressing cynomolgus CD96v2. (In flow cytometry, cells or beads pass a laser one at a time.)

Test [3] deals with T1, human CD96v2 expressed on cells (CHO …). As to the kind of experiment: flow cytometry, inhibition of human CD155-Fc-AF647 binding to CHO cells expressing human CD96v2; competitor CD155-Fc.

From patent US12528864 (GlaxoSmithKline, dated 2026) come the findings set out here.

A word on the EC50: it is the concentration needed to bring the measured effect to its halfway point. For orientation: IC50 means the concentration that gives 50% inhibition.

B1: 42Y073-1A01-103 (antibody, V domains shown)
VH: QVQLVQSGAEVKKPGASVKVSCKASGYTFTAYQMHWVRQAPGQGLEWMGIINPAGGWTSYAQKFQGRVTMTRDTSTSTVYMELSSLRSEDTAVYYCARETAYYTTKGNWFDPWGQGTLVTVSS
VL: DIQMTQSPSSLSASVGDRVTITCRASQSISSYLNWYQQKPGKAPKLLIYAASSLQSGVPSRFSGSGSGTDFTLTISSLQPEDFATYYCQQSLYPPRTFGGGTKVEIK
notes: Fully human antibody
B1: the 50% effective concentration (EC50) in test [1] is 0.02 nM; in test [2], 0.03 nM. In test [3], the IC50 was determined as 0.03 nM.

B2: 42Y073-86F04-6 (antibody, V domains shown)
VH: QVQLVQSGAEVKKPGSSVKVSCKASGGTFSGHAISWVRQAPGQGLEWMGGIIPIFGRARYAQKFQGRVTITADESTSTAYMELSSLRSEDTAVYYCARLLGESGMDVWGQGTTVTVSS
VL: DIQMTQSPSSLSASVGDRVTITCRASQSISSYLNWYQQKPGKAPKLLIYAASSLQSGVPSRFSGSGSGTDFTLTISSLQPEDFATYYCQQPYFSPPTFGGGTKVEIK
notes: Fully human antibody
Turning to B2, the concentration giving a half-maximal response (EC50) in test [1] was 0.06 nM; in test [2] it was 0.11 nM. Besides, in test [3], the IC50 was determined as 0.25 nM.

B3: 42Y073-86F04-5 (antibody, V domains shown)
VH: QVQLVQSGAEVKKPGSSVKVSCKASGGTFSSHAISWVRQAPGQGLEWMGGIIPIFGRGKYAQKFQGRVTITADESTSTAYMELSSLRSEDTAVYYCARLLGESGMDVWGQGTTVTVSS
VL: DIQMTQSPSSLSASVGDRVTITCRASQSISSYLNWYQQKPGKAPKLLIYAASSLQSGVPSRFSGSGSGTDFTLTISSLQPEDFATYYCQQPYFSPPTFGGGTKVEIK
notes: Fully human antibody
With B3, the results for the EC50 in test [1] and in test [2] were 0.05 nM and 0.07 nM, respectively. The IC50 in test [3] came out at 0.38 nM.

B4: 42Y073-1A01-191 (antibody, V domains shown)
VH: QVQLVQSGAEVKKPGASVKVSCKASGYTFTKYRMHWVRQAPGQGLEWMGIINPQGGSTSYAQKFQGRVTMTRDTSTSTVYMELSSLRSEDTAVYYCARETAYYTTKGNWFDPWGQGTLVTVSA
VL: DIQMTQSPSSLSASVGDRVTITCRASQSISSYLNWYQQKPGKAPKLLIYAASSLQSGVPSRFSGSGSGTDFTLTISSLQPEDFATYYCQQSLYPPRTFGGGTKVEIK
notes: Fully human antibody
With B4, the values for the EC50 in test [1] and in test [2] were 0.01 nM and 0.02 nM, respectively. The IC50 in test [3] was determined as 0.03 nM.

B5: 42Y073-1A01-97 (antibody, V domains shown)
VH: QVQLVQSGAEVKKPGASVKVSCKASGYTFTRAAMHWVRQAPGQGLEWMGIINPAGGYTSYAQKFQGRVTMTRDTSTSTVYMELSSLRSEDTAVYYCARETAYYTTKGNWFDPWGQGTLVTVSS
VL: DIQMTQSPSSLSASVGDRVTITCRASQSISSYLNWYQQKPGKAPKLLIYAASSLQSGVPSRFSGSGSGTDFTLTISSLQPEDFATYYCQQSLYPPRTFGGGTKVEIK
notes: Fully human antibody
Regarding B5, the values for the EC50 in test [1] and in test [2] were 0.77 nM and 0.02 nM, respectively. Also, the IC50 in test [3] was determined as 0.03 nM.

B6: 42Y073-1A01-100 (antibody, V domains shown)
VH: QVQLVQSGAEVKKPGASVKVSCKASGYTFTTYRMHWVRQAPGQGLEWMGIINPSGGLTQYAQKFQGRVTMTRDTSTSTVYMELSSLRSEDTAVYYCARETAYYTTKGNWFDPWGQGTLVTVSS
VL: DIQMTQSPSSLSASVGDRVTITCRASQSISSYLNWYQQKPGKAPKLLIYAASSLQSGVPSRFSGSGSGTDFTLTISSLQPEDFATYYCQQSLYPPRTFGGGTKVEIK
notes: Fully human antibody
B6: the EC50 turned out to be 0.02 nM in test [1] and 0.04 nM in test [2]. Moreover, the IC50 in test [3] came out at 0.06 nM.

B7: 42Y073-86F04-3 (antibody, V domains shown)
VH: QVQLVQSGAEVKKPGSSVKVSCKASGGTFSYNAISWVRQAPGQGLEWMGGIIPIMGTARYAQKFQGRVTITADESTSTAYMELSSLRSEDTAVYYCARLLGESGMDVWGQGTTVTVSS
VL: DIQMTQSPSSLSASVGDRVTITCRASQSISSYLNWYQQKPGKAPKLLIYAASSLQSGVPSRFSGSGSGTDFTLTISSLQPEDFATYYCQQPYFSPPTFGGGTKVEIK
notes: Fully human antibody
For the molecule B7, the EC50 in test [1] and in test [2] was 0.04 nM in each case. This molecule also yielded an IC50 in test [3] of 0.31 nM.

B8: 42Y073-1A01-85 (antibody, V domains shown)
VH: QVQLVQSGAEVKKPGASVKVSCKASGYTFTSYPMHWVRQAPGQGLEWMGIINPSGGFTSYAQKFQGRVTMTRDTSTSTVYMELSSLRSEDTAVYYCARETAYYTTKGNWFDPWGQGTLVTVSA
VL: DIQMTQSPSSLSASVGDRVTITCRASQSISSYLNWYQQKPGKAPKLLIYAASSLQSGVPSRFSGSGSGTDFTLTISSLQPEDFATYYCQQSLYPPRTFGGGTKVEIK
notes: Fully human antibody
As for B8, the EC50 in test [1] came to 0.47 nM; in test [2] it was 0.01 nM. In test [3], this molecule gave an IC50 of 0.03 nM.

B9: 42Y073-86F04-4 (antibody, V domains shown)
VH: QVQLVQSGAEVKKPGSSVKVSCKASGGTFESEAISWVRQAPGQGLEWMGGIIPIFGRARYAQKFQGRVTITADESTSTAYMELSSLRSEDTAVYYCARLLGESGMDVWGQGTTVTVSS
VL: DIQMTQSPSSLSASVGDRVTITCRASQSISSYLNWYQQKPGKAPKLLIYAASSLQSGVPSRFSGSGSGTDFTLTISSLQPEDFATYYCQQPYFSPPTFGGGTKVEIK
notes: Fully human antibody
Turning to B9, the EC50 came to 0.04 nM in test [1] and 0.07 nM in test [2]. In addition, the half-inhibitory concentration (IC50) in test [3] is 0.18 nM.

B10: 42Y073-86F04-33 (antibody, V domains shown)
VH: QVQLVQSGAEVKKPGSSVKVSCKASGGTFSSYAISWVRQAPGQGLEWMGGILPIFGRANYAQKFQGRVTITADESTSTAYMELSSLRSEDTAVYYCARLLGESGMDVWGQGTTVTVSS
VL: DIQMTQSPSSLSASVGDRVTITCRASQSISSYLNWYQQKPGKAPKLLIYAASSLQSGVPSRFSGSGSGTDFTLTISSLQPEDFATYYCQQPYFSPPTFGGGTKVEIK
notes: Fully human antibody
B10: the EC50 in test [1] is 0.04 nM; in test [2] it was 0.05 nM. This molecule also registered an IC50 in test [3] of 0.71 nM.

B11: 42Y073-86F04-18 (antibody, V domains shown)
VH: QVQLVQSGAEVKKPGSSVKVSCKASGGTFSSRAISWVRQAPGQGLEWMGGIIPIMGTARYAQKFQGRVTITADESTSTAYMELSSLRSEDTAVYYCARLLGESGMDVWGQGTTVTVSS
VL: DIQMTQSPSSLSASVGDRVTITCRASQSISSYLNWYQQKPGKAPKLLIYAASSLQSGVPSRFSGSGSGTDFTLTISSLQPEDFATYYCQQPYFSPPTFGGGTKVEIK
notes: Fully human antibody
In the case of B11, the EC50 in test [1] was determined as 0.07 nM; in test [2] it was 0.11 nM. Also, the IC50 in test [3] stood at 0.59 nM.

B12: 42Y073-1A01-126 (antibody, V domains shown)
VH: QVQLVQSGAEVKKPGASVKVSCKASGYTFTRYNMHWVRQAPGQGLEWMGWINPAGGSTSYAQKFQGRVTMTRDTSTSTVYMELSSLRSEDTAVYYCARETAYYTTKGNWFDPWGQGTLVTVSA
VL: DIQMTQSPSSLSASVGDRVTITCRASQSISSYLNWYQQKPGKAPKLLIYAASSLQSGVPSRFSGSGSGTDFTLTISSLQPEDFATYYCQQSLYPPRTFGGGTKVEIK
notes: Fully human antibody
B12: the EC50 in test [1] is 0.02 nM; in test [2], 0.03 nM. The same molecule had an IC50 in test [3] of 0.1 nM.

B13: 42Y073-86F08-16 (antibody)
heavy: not shown
light: DIQLTQSPSSLSASVGDRVTITCRASQSISSYLNWYQQKPGKAPKLLIYAASSLQSGVPSRFSGSGSGTDFTLTISSLQPEDFATYYCQQVLHTITFGGGTKVEIKRTVAAPSVFIFPPSDEQLKSGTASVVCLLNNFYPREAKVQWKVDNALQSGNSQESVTEQDSKDSTYSLSSTLTLSKADYEKHKVYACEVTHQGLSSPVTKSFNRGEC
notes: also called 42Y073-88F08-16
Regarding B13, the EC50 in test [1] came to 0.03 nM; in test [2], 0.04 nM. The molecule further displayed an IC50 in test [3] of 0.78 nM.

B14: 42Y073-86F08-1 (antibody, V domains shown)
VH: QVQLVQSGAEVKKPGSSVKVSCKASGGTFSSYAISWVRQAPGQGLEWMGGIIPIFGTASYAQKFQGRVTITADESTSTAYMELSSLRSEDTAVYYCARGAGYYGDKDPMDVWGQGTTVTVSS
VL: DIQLTQSPSSLSASVGDRVTITCRASQSISSYLNWYQQKPGKAPKLLIYAASSLQSGVPSRFSGSGSGTDFTLTISSLQPEDFATYYCQQVLHTITFGGGTKVEIK
Consider B14, for which, in test [1], a half-maximal effect (EC50) was put at 0.07 nM. In test [3], this molecule displayed an IC50 of 0.33 nM.

B15: 42Y073-86F08-3 (antibody, V domains shown)
VH: QVQLVQSGAEVKKPGSSVKVSCKASGGTFVNYAISWVRQAPGQGLEWMGGIIPALGTANYAQKFQGRVTITADESTSTAYMELSSLRSEDTAVYYCARGAGYYGDKDPMDVWGQGTTVTVSS
VL: DIQLTQSPSSLSASVGDRVTITCRASQSISSYLNWYQQKPGKAPKLLIYAASSLQSGVPSRFSGSGSGTDFTLTISSLQPEDFATYYCQQVLHTITFGGGTKVEIK
notes: Fully human antibody
As to B15, the EC50 in test [1] stood at 0.04 nM. The molecule also displayed an IC50 in test [3] of 0.28 nM.
